Measurements taken from patent US10202584B2, “Red-shifted luciferase-luciferin pairs for enhanced bioluminescence” (The Regents of the University of California, priority 2016, dated 2019).

Experiments:
[1] = substrate: O=c1c(Cc2ccccc2)nc2c([Se]c3ccccc3)[nH]c(-c3ccccc3)cn1-2; assay: purified protein, by the assay type; settings: other: apparent, 100 pM enzyme, substrate 0.78 to 50 μM, assay buffer pH 6.0, mean ± s.d., n = 3, 37.0 °C
Procedure: FIG. 8 is a panel of graphs showing substrate titrations with pure enzymes to determine apparent Michaelis constants (Km). Titrations using new luciferases (8a) and Fluc (8b) are shown. The final concentrations of all enzymes were 100 pM. Substrate concentrations varied from 0.78 to 50 μM, and peak bioluminescence intensities at individual substrate concentrations were used to fit the Michaelis-Menten equation. Data are shown as mean and s.d. of three independent experiments.
Luciferases were expressed and purified as His6-tagged fusion proteins (FIG. 18).
A Synergy Mx Microplate Reader (BioTek) was used for all in vitro bioluminescence characterizations. For kinetics measurements, no emission filter or monochromator was used. 50 μL of luciferin substrates in the assay buffer (1 mM CDTA, 0.5% Tergitol NP-40, 0.05% Antifoam 204, 150 mM KCl, 100 mM IVIES pH 6.0, 1 mM DTT, and 35 mM thiourea) was injected into the wells of white 96-well plates containing 50 μL of pure enzymes in the same assay buffer. The final concentrations of all enzymes and substrates were 100 pM and 30 μM, respectively. Measurements were taken every 60 s post-injection (1-s integration and 10-s shaking during intervals). FLuc bioluminescence assays were performed similarly, except the assay buffer contained 30 mM MOPS, pH 7.0, 1.5 mM ATP, and 5 mM MgSO4.

[2] = substrate: O=c1c(Cc2ccccc2)nc2c(-c3ccccc3)[nH]c(-c3ccccc3)cn1-2; assay: purified protein, by the assay type; settings: other: apparent, 100 pM enzyme, substrate 0.78 to 50 μM, assay buffer pH 6.0, mean ± s.d., n = 3, 37.0 °C

B1: yeLuc, NanoLuc variant yeLuc0.8-F1L/A14D/V27L/Q69R/R112Q/L142R (yeLuc0.8 = NanoLuc-L18Q/D19A/S28T/C164S), SEQ ID NO: 4 (Oplophorus gracilirostris; … (protein)
chain: MVLTLEDFVGDWRQTDGYNQAQVLEQGGLTSLFQNLGVSVTPIQRIVLSGENGLKIDIHVIIPYEGLSGDRMGQIEKIFKVVYPVDDHHFKVILHYGTLVIDGVTPNMIDYFGQPYEGIAVFDGKKITVTGTLWNGNKIIDERRINPDGSLLFRVTINGVTGWRLSERILA
Km [1]: 11.9 ± 0.9 µM | kcat [1]: 175 ± 5 s⁻¹

B2: teLuc, NanoLuc variant D19S/D85N/C164H, SEQ ID NO: 2 (Oplophorus gracilirostris; … (protein)
chain: MVFTLEDFVGDWRQTAGYNLSQVLEQGGVSSLFQNLGVSVTPIQRIVLSGENGLKIDIHVIIPYEGLSGDQMGQIEKIFKVVYPVDNHHFKVILHYGTLVIDGVTPNMIDYFGRPYEGIAVFDGKKITVTGTLWNGNKIIDERLINPDGSLLFRVTINGVTGWRLHERILA
Km [2]: 10.2 ± 0.4 µM | kcat [2]: 88.1 ± 0.1 s⁻¹

B3: yeLuc0.8, NanoLuc variant L18Q/D19A/S28T/C164S, SEQ ID NO: 3 (Oplophorus gracilirostris; … (protein)
chain: MVFTLEDFVGDWRQTAGYNQAQVLEQGGVTSLFQNLGVSVTPIQRIVLSGENGLKIDIHVIIPYEGLSGDQMGQIEKIFKVVYPVDDHHFKVILHYGTLVIDGVTPNMIDYFGRPYEGIAVFDGKKITVTGTLWNGNKIIDERLINPDGSLLFRVTINGVTGWRLSERILA
Km [1]: 6.3 ± 0.5 µM

B4: Antares2 (Antares with NanoLuc replaced by teLuc, D19S/D85N/C164H; fused to CyOFP1) (Oplophorus gracilirostris; … (protein)
chain: MVFTLEDFVGDWRQTAGYNLSQVLEQGGVSSLFQNLGVSVTPIQRIVLSGENGLKIDIHVIIPYEGLSGDQMGQIEKIFKVVYPVDNHHFKVILHYGTLVIDGVTPNMIDYFGRPYEGIAVFDGKKITVTGTLWNGNKIIDERLINPDGSLLFRVTINGVTGWRLHERILA
Km [2]: 9.7 ± 0.2 µM | kcat [2]: 86.1 ± 0.7 s⁻¹
